Experiment [1] concerns eosinophils in healthy donor PMNL samples. Put plainly: Shape change assay: CCL11-stimulated eosinophil shape change in PMNL, flow cytometry (FSC). It is filed as cell-based, human. To be noted: Example 1, 3 μg/mL ApoA-IV pretreatment 30 min. The procedure:
PMNL samples were pretreated with 3 μg/mL ApoA-IV (positive control), 100 μg/mL SO, and formulation vehicle (negative control) for 30 minutes and stimulated with serial dilutions of CCL11 for 20 minutes at 37° C. Shape change was monitored by flow cytometry as the increase of forward scatter (FSC) and was expressed as percent of the vehicle response. Note, eosinophils are distinguishable from neutrophils by their SSC properties and autofluorescence.
The chemotactic factor, CCL11, was used to prime eosinophils to immediately prepare for diapedesis through the endothelium by rearranging their cytoskeleton. This morphological change was detected by flow cytometry as an increase in the forward scatter properties of these cells. The effects of SO at 100 μg/mL was studied and compared to the known effect of 3 μg/mL ApoA-IV on eosinophil shape change in healthy donor PMNL samples. The pretreated samples were stimulated with serial dilutions of CCL11, and shape change was monitored by flow cytometry.
PMNL samples were pretreated with 100 μg/mL SO, heat, acid and base treated SO, krill oil, standard 18/12 fish oil, and formulation vehicle (negative control) for 30 minutes and stimulated with serial dilutions of CCL11 for 20 minutes at 37° C. Shape change was monitored by flow cytometry as the increase of forward scatter (FSC) and was expressed as percent of the vehicle response. Eosinophils were distinguishable from neutrophils by their SSC properties and auto-fluorescence.
The chemotactic factor, CCL11, was used to prime eosinophils to immediately prepare for diapedesis through the endothelium by rearranging their cytoskeleton. This morphological change was detected by flow cytometry as an increase in the forward scatter properties of these cells. The effects of SO at 100 μg/mL was studied and compared to the various processing treatments on SO, krill oil and standard 18/12 fish oil on eosinophil shape change in healthy donor PMNL samples. The pretreated samples were stimulated with serial dilutions of CCL11, and shape change was monitored by flow cytometry.
A general note: Flow cytometry measures light scatter and fluorescence of single cells or particles in a stream.

In experiment [2] the test system is CD11b on eosinophils (PMNL surface). Put plainly: CD11b (integrin) upregulation assay, CCL11-stimulated PMNL, flow cytometry. The experiment is classed as cell-based, human. Particulars: Example 1, 3 μg/mL ApoA-IV pretreatment 30 min. Here is the method:
PMNL samples were pretreated with 3 μg/mL ApoA-IV (positive control), 100 μg/mL SO, and formulation vehicle (negative control) for 30 minutes and incubated with serial dilutions of CCL11 for 30 minutes at 37° C. Samples were stained with anti-CD16-PE-Cy5 and anti-CD11b-PE (ICRF44) antibodies. Eosinophils were identified as CD16 negative cells. CD11b upregulation was analyzed by flow cytometry.
A precondition for eosinophil migration is upregulation of adhesion molecules such as the αmβ2 integrins (CD11b/CD18).
PMNL samples were pretreated with 100 μg/mL SO, heat, acid and base treated SO, krill oil, standard 18/12 fish oil, and formulation vehicle (negative control) for 30 minutes and incubated with serial dilutions of CCL11 for 30 minutes at 37° C. Samples were stained with anti-CD16-PE-Cy5 and anti-CD11b-PE (ICRF44) antibodies. Eosinophils were identified as CD16 negative cells. CD11b upregulation was analyzed by flow cytometry.

For experiment [3], the system named is House Dust Mite (HDM) extract-induced murine asthma model. Put plainly: House Dust Mite (HDM) extract-induced murine asthma model: BAL fluid and spleen cellularity. It is filed as in vivo, mice. To be noted: 5 μg/animal, day 7 to day 14, N=5; for Percent eosinophil in spleen tissue (Mean): spleen on day 15. The procedure: For this purpose, normal saline (NS) was used as a vehicle control and Apolipoprotein A-IV (ApoA-IV) was used as a positive control, respectively. The study involved induction of asthmatic condition in mice using HDM extract and simultaneous evaluation of the effects of OmeGo Salmon oil (CARDIO softgels; 20 or 60 μg/animal) and ApoA-IV (5 μg/animal; as a positive control) on cosinophil modulation in mice.
On day 1, all 20 mice were anesthetized and sensitized intranasally with 1 μg HDM protein in 40 μL PBS. From day 7 to day 11, all 20 mice were challenged by daily intranasal application of 10 μg HDM protein in 40 μL PBS. Mice were randomly divided into four groups with five mice in each group for differential treatment from day 7 to day 14. From day 7 to day 14, each animal in the first group (G1) received 100 μL NS; each animal in the second group (G2) received 20 μg CARDIO in 100 μL NS; each animal in the third group (G3) received 60 μg CARDIO in 100 μL NS; and each animal in the fourth group (G4) received 5 μg ApoA-IV in 100 μL NS.
The Broncho-Alveolar Lavage (BAL) fluid and spleen were collected from all 20 mice on day 15, and cellularity of the collected samples were analyzed by flow cytometry.

The test system of experiment [4] is allergic human eosinophils. The experiment in a line: Apoptosis assay (Annexin V-FITC, flow cytometry). Particulars: Example 1; 3 μg/mL ApoA-IV; 18 hr incubation; IL-5 50 pM. The experiment is classed as cell-based. The procedure:
(§1) The allergic human eosinophils were placed in RPMI 1640 medium supplemented with IL-5 (50 pM), 1% FBS and PenStrep in the presence of 3 μg/mL ApoA-IV (positive control), 100 μg/mL SO, and formulation vehicle (negative control). Aliquots were removed after 18 hr incubation, washed twice in PBS, and resuspended in binding buffer. The eosinophil cells were stained using the Annexin V-FITC Apoptosis Detection Kit I, (Sigma Aldrich) and immediately analyzed by flow cytometry. Each sample was acquired for 1 min, and the total number of eosinophils gated on a forward scatter/side scatter plot and the percentage of live cells (annexin Vneg) and apoptotic cells (annexin Vpos) was recorded.
as §1, with “of” for “of 3 μg/mL ApoA-IV (positive control),”, “SO, heat, acid and base treated SO, krill oil, standard 18/12 fish oil,” for “SO,”, “Aliquots were removed after 18 hr incubation, washed twice in PBS, and resuspended in binding buffer.” left out, “recorded. […]” for “recorded.”

B1: Apolipoprotein A-IV (protein, UniProt P06727 21-396, looked up)
Apolipoprotein A-IV: EVSADQVATVMWDYFSQLSNNAKEAVEHLQKSELTQQLNALFQDKLGEVNTYAGDLQKKLVPFATELHERLAKDSEKLKEEIGKELEELRARLLPHANEVSQKIGDNLRELQQRLEPYADQLRTQVSTQAEQLRRQLTPYAQRMERVLRENADSLQASLRPHADELKAKIDQNVEELKGRLTPYADEFKVKIDQTVEELRRSLAPYAQDTQEKLNHQLEGLTFQMKKNAEELKARISASAEELRQRLAPLAEDVRGNLRGNTEGLQKSLAELGGHLDQQVEEFRRRVEPYGENFNKALVQQMEQLRQKLGPHAGDVEGHLSFLEKDLRDKVNSFFSTFKEKESQDKTLSLPELEQQQEQQQEQQQEQVQMLAPLES
notes: positive control protein
With B1, the “Shape change (100% as baseline) of PMNL” value in experiment [1] (CCL11 0.05 nM) was 100%; in experiment [1] (CCL11 0.10 nM) it was 103%; in experiment [1] (CCL11 0.25 nM), 105%; in experiment [1] (CCL11 0.50 nM) it was 106%; in experiment [1] (CCL11 0.75 nM) it was 108%; in experiment [1] (CCL11 1.00 nM) it was 109%. Further, the “Shape change (100% as baseline) of PMNL” value is given as 109% in experiment [1] (CCL11 2.50 nM) and 107% in experiment [1] (CCL11 5.00 nM). In addition, the “CB11b change (100% as baseline) on PMNL surface” value turned out to be 95% in experiment [2] (CCL11 0.01 nM); 103% in experiment [2] (CCL11 0.50 nM); 122% in experiment [2] (CCL11 1.00 nM); 125% in experiment [2] (CCL11 2.50 nM); 125% in experiment [2] (CCL11 5.00 nM); 114% in experiment [2] (CCL11 10.00 nM). The “Cell count in BAL fluid: Eosinophil count (Mean)” value in experiment [3] (BAL on day 15) is recorded as 28220. Moreover, the results for the “Percent eosinophil in spleen tissue (Mean)” value in experiment [3] and in experiment [3] (listed as ApoA-IV) were 2.34% and “significantly decreased”, respectively. Moreover, the “percentage of apoptotic cells (annexin Vpos)” value in experiment [4] amounted to 60±3.8%. Moreover, the “percentage of live cells (annexin Vneg)” value in experiment [4] is on record as 31.5±2.3%.
